Measurements from patent publication US20210188980A1 (SHANGHAI EPIMAB BIOTHERAPEUTICS, published 2021).

T1: human LAG-3 expressed on cells (human, UniProt P18627 23-525)
T1 sequence (looked up): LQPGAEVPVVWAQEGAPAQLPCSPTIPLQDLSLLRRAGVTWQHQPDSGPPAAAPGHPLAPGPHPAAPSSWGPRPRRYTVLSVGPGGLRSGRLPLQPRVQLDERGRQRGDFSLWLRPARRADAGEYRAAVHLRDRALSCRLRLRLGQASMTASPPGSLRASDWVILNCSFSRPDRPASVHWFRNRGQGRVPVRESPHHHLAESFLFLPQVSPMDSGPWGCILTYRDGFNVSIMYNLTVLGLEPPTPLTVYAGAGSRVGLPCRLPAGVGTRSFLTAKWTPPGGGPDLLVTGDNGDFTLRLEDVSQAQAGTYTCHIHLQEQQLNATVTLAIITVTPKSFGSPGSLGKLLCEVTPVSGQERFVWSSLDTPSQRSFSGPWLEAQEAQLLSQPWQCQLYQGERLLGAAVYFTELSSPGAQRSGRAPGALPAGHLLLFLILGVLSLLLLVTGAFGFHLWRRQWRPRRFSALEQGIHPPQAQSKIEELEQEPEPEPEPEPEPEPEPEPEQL

T2: recombinant human LAG-3-his protein (Novoprotein) (human, UniProt P18627 23-450)
T2 construct: Bought; also called huLAG-3; not shown: His tag
T2 sequence (looked up): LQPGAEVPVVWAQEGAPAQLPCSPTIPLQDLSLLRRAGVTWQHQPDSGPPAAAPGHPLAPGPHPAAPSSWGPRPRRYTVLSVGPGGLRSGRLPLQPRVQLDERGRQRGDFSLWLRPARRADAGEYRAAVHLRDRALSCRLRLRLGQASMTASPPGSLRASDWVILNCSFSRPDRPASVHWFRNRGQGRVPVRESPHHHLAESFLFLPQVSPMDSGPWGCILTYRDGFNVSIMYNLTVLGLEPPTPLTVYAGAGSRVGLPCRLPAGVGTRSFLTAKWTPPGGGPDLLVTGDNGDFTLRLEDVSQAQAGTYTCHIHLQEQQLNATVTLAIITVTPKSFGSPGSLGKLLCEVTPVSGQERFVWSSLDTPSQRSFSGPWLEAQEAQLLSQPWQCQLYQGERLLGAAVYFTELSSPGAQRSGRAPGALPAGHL


Legend:
[1] = biological target: T1, human LAG-3 expressed on cells; assay: cell-based or functional assay
[2] = biological target: T3, human LAG-3 ECD/Fc fusion protein (human); assay: ELISA, coated huLAG-3 ECD/Fc
T3 construct: also called HuLAG-3 ECD/Fc
Description: The supernatants of hybridoma clones were primarily screened by ELISA. Briefly, 50 μl/well of […] human LAG-3 ECD/Fc in NaHCO₃ were directly coated in each well of 96-well plate overnight. Plates were washed 3 times with 1×PBST, 300 μl per well. After blocking with 1% BSA in PBST at 250 μl per well and incubating at room temperature for 1 hour, the hybridoma supernatants were added at 50 μl per well and incubated at 37° C. for 1 hour. After washing, an HRP-linked goat anti-mouse IgG Fc secondary antibody (Cat. No. A0168, Sigma) was added at 100 μl/well and the plates were incubated at room temperature for 1 hour. TMB reagent (InnoReagents) was used to detect and develop the ELISA signal at 100 μl/well for 15 minutes, the reaction was stopped with 1 Normal HCL. The plates were read with a plate reader (SpectraMax® M5e, Molecular Devices, USA) at a wavelength of 450 nm. The ELISA-positive antibody producer clones were further verified by FACS analysis using methods similar to Example 1.4, above, except that stable HEK 293F cell lines expressing either human LAG-3 or cynomolgus LAG-3 were used. Hybridomas producing LAG-3 binding activity were selected and further characterized in a receptor blocking assay (RBA).
A binding ELISA was performed in the same way as described in Example 7.2 above. Each purified antibody was 10-fold serially diluted. After blocking of a 96-well assay plate with wells containing immobilized LAG-3 ECD/Fc fusion protein targets, the purified antibody samples with diluted concentrations were added to wells of the assay plate. The HRP-linked anti-mouse IgG antibody (A0168, Sigma) and TMB reagent were used to detect and develop the ELISA signal, which were read on a SpectraMax M5e plate reader at wavelength of 450 nm. Curves were fitted using GraphPad software, and EC50 values were calculated. Similarly, a RBA was also performed as described in Example 7.3 with titrated, purified antibodies, and maximum inhibition percentages and IC50 values were determined.

[3] = biological target: T1, human LAG-3 expressed on cells; assay: FACS, HEK 293F huLAG-3 cells
Description: (§1) FAGS analysis was performed using methods similar to Example 1.4, above, except that stable HEK 293F cell lines expressing either human LAG-3 cynomolgus LAG-3 were used. LAG-3 expressing cells were charged at 2×10⁴ cell per well into 96-well assay round-bottomed assay plates (Cat. No. 3799; Corning) and stained with purified anti-LAG-3 antibodies. LAG-3 antibodies were detected with AlexaFluor® Donkey anti-Mouse Ig (H+L) Highly Cross-Adsorbed Secondary Antibody (Cat. No. A21202; Invitrogen), and cell fluorescence was monitored using a flow cytometer. The data were processed by GraphPad software, and EC50 values were calculated.

[4] = biological target: T4, cynomolgus LAG-3 expressed on HEK 293F cells (cynomolgus); assay: FACS, HEK 293F cynoLAG-3 cells
T4 construct: whole, on cells
Description: as §1

[5] = biological target: LAG-3 antigen (Biacore analyte of Example 7.7); assay: SPR Biacore T200, mAb captured, LAG-3 antigen analyte
Description: For antibodies with high binding affinity in ELISA and FACS assays, as well as potent functional activity, binding affinities were determined based on measurement of binding kinetic constants in real time binding reactions using Biacore surface plasmon resonance. Briefly, the binding assay of antibody to antigen was performed using a Biacore T200 system through an antibody capture approach. Anti-mouse IgG Fc antibody was immobilized on a CM5 sensor chip according to the manufacturer's instructions. The test anti-LAG-3 murine monoclonal antibody was injected and captured by the immobilized anti-mouse IgG Fc. Then serial concentrations of LAG-3 antigen were individually injected, and the binding profile was recorded for each concentration of antigen analyte. The assay temperature was 25° C., and the association and dissociation times were 180 and 1200 seconds, respectively. The Biacore data were fitted using Biacore T200 evaluation software 1.0 according to a 1:1 binding model to calculate the association (kₒₙ) and dissociation (koff) rate constants and from these calculations the equilibrium dissociation constant (KD) was determined.

[6] = biological target: T3, human LAG-3 ECD/Fc fusion protein; assay: FACS RBA, huLAG-3 ECD/Fc on Raji; competitor MHC Class II
Description: Supernatants displaying LAG-3 specific activity were tested for the ability to block LAG-3 receptor binding to MHC Class II. Raji human B cell lymphoblasts express high levels of MCH Class II and were used as binding targets for LAG-3 ECD/Fc proteins described above. Briefly, Raji cells were harvested and resuspend in FACS buffer and plated in 96-well plates (2×10⁵ cells/well). Anti-LAG-3 hybridoma supernatants were mixed with soluble LAG-3 ECD/Fc and the mixture was added to wells at a final volume of 100 μl/well. After adding the mixture to cells, the plates were incubated at room temperature for 30 minutes. After washing twice with PBS, the cells were incubated with anti-human IgG Alexa Fluor® 488 secondary antibody at 4° C. for 1 hour, washed twice with PBS, then fluorescence was measured on a flow cytometer.
Purified anti-LAG-3 antibodies also were tested in a RBA in the same manner as described in Example 7.3. Antibodies were also tested in an antigen-specific T cell activation assay, as follows: A huLAG-3 expressing murine T hybridoma cell line was generated to order by ChemPartner (Shanghai, CN). Mouse splenocytes from the same strain of mice were used as effector cells. The hybridoma expressing the huLAG-3 receptor protein is capable of binding to MHC Class II-positive mouse splenocytes, with inhibitory effect via engagement of Class II. The assay tests for anti-LAG-3 antibody-mediated reversal of the inhibitory effect, as measured by increased production of IL-2. Mouse spleenocytes were harvested from 6-8 week-old female C57BL/6 mice, red blood cells were lysed using Red Blood Cell Lysis Buffer (Sigma-Aldrich; R7757) according to the maker's instructions. Next, 50 μl T hybridoma-huLAG-3 cells (2×10⁶ cells/ml) were seeded in each well of a 96-well culture plate, and then a series of anti-LAG-3 monoclonal antibodies in solution at 50 μl/well were added and incubated at 37° C. for 30 min. Mouse splenocytes (4×10⁶ cells/ml) and the antigen (20 μg/ml) were mixed and incubated at 37° C. for 30 min. The mixture (100 μl/well) was added into each well that was already seeded with T hybridoma-huLAG-3 cells and anti-LAG-3 mAbs. The mixture of antibodies, T hybridoma-huLAG-3 cells, mouse splenocytes, and the antigen was cultured for 3 days.

[7] = biological target: T2, recombinant human LAG-3-his protein …; assay: BLI Octet, Ab on AHC sensor, huLAG-3-his; test group 4
Description: All 18 humanized antibodies (Table 34) and a chimeric antibody having the parental murine VH and VL domains (mAb747c) were ranked by dissociation rate constant (koff). Briefly, antibodies were characterized for affinities and binding kinetics by Octet®RED96 biolayer interferometry (Pall ForteBio LLC). Antibodies were captured by Anti-hIgG Fc Capture (AHC) Biosensors (Pall) at a concentration of 100 nM for 30 seconds. Sensors were then dipped into running buffer (1× pH7.2 PBS, 0.05% Tween 20, 0.1% BSA) for 60 seconds to check baseline. Binding was measured by dipping sensors into a single concentration of recombinant human LAG-3-his protein (Novoprotein). Dissociation was followed by dipping sensors into running buffer for 1200 seconds. The association and dissociation curves were fitted to a 1:1 Langmuir binding model using FortéBio Data Analysis software (Pall). In each test group, the off-rates of antibodies were able to be compared with that of mAb747c. The off-rate ratios were calculated by the off-rate of antibody to that of mAb747c of its group and were compared all together. The lower the ratio was, the higher was the affinity of the antibody.

Antigen-dependent Activation, Mouse IL-2, EC50 [1] [nM]	Max IL-2 [1] [pg/mL]	EC50 [2] [nM]	EC50 [3] [nM]	Max-MFI [3] [MFI]	EC50 [4] [nM]	Max-MFI [4] [MFI]	Kd [5] [nM]	IC50 [6] [nM]	Max. Inhib. (%) [6] [%]	koff [7] [s⁻¹]	off-rate ratio to that of mAb747c [7] [%]	Binder
–	–	–	–	–	–	–	–	–	–	0.00081	153	HumAb747-60 (antibody, human IgG1, V domains shown, humanized mAb747; human IgG1/kappa constant domains) VH: EVQLVQSGAEVKKPGATVKLSCTASDFNIKDDYMHWVKQRPEQGLDWIGWIVPENGNTEYASKFQGKATITADTSTNTAYLELSSLRSEDTAVYYCTVYGDYWGQGTTVTVSS VL: DIQMTQSPSSLSASVGDRVTITCRASQEISGYLSWLQQKPGGAIKRLIYAASTLDSGVPSRFSGSRSGSDYTLTISSLQPEDFADYYCLQYASYPLTFGQGTKLELK
1.27	729	0.25	1.1	104	3.1	65.2	52	2.84	96.3	–	–	mAb747 (antibody, V domains shown, murine hybridoma anti-LAG-3 mAb; also called 3502-mAb747) VH: EVQLQQSGAELVRPGASVKLSCTASDFNIKDDYMHWVKQRPEQGLDWIGWIVPENGNTEYASKFQGKATITADTSSNTAYLQLSSLTSEDTAVYYCTVYGDYWGQGTTLTVSS VL: DIQMTQSPSSLSASLGERVSLNCRASQEISGYLSWLQQKPDGTIKRLIYAASTLDSGVPKRFSGSRSGSDYSLTISSLESEDFAAYYCLQYASYPLTFGAGTKLELK

Continued, binder first:

Binder	Antigen-dependent Activation, Mouse IL-2, EC50 [1] [nM]	Max IL-2 [1] [pg/mL]	EC50 [2] [nM]	EC50 [3] [nM]	Max-MFI [3] [MFI]	EC50 [4] [nM]	Max-MFI [4] [MFI]	Kd [5] [nM]	IC50 [6] [nM]	Max. Inhib. (%) [6] [%]	koff [7] [s⁻¹]	off-rate ratio to that of mAb747c [7] [%]
mAb746 (antibody, V domains shown, murine hybridoma anti-LAG-3 mAb; also called rnAb746; 3502-mAb746) VH: EVQLQQSGAELVRPGASVKLSCTASDFNIKDDYMHWVKQRPEQGLDWIGWIVPENGNTEYASKFQGKATITADTSSNTAYLQLSSLTSEDTAVYYCTVYGDYWGQGTTLTVSS VL: DIQMTQSPSSLSASLGERVSLNCRASQEISGYLSWLQQKSDGTIKRLIYAASTLDSGVPKRFSGSRSGSDYSLTISSLESEDFADYYCLQYASYPLTFGAGTKLELK	1.28	654	0.31	13	121	4.1	66.2	37.7	2.92	96.2	–	–
mAb750 (antibody, V domains shown, murine hybridoma anti-LAG-3 mAb) VH: EVQLQQSGAELVRPGASVKLSCTPSGLNIKDDYIHWVKQRPEQGLEWIGWIDPENGDTEYASKFQGKATITADTSSNTAYLQLSSLTSEDSAVYYCCTADYRNWYWGQGTTLTVSS VL: not shown	–	552	0.25	24.1	88.7	114	36.7	75.1	7.15	96.6	–	–
mAb749 (antibody, V domains shown, murine hybridoma anti-LAG-3 mAb) VH: EVQLQQSGAELVRPGASVKVSCTASDFNIKDDYVHWVKQRPEQGLEWIGWIDPENGDTEYASKFQGKATITADTSSNTAYLQLSSLTSEDTAVYFCSTWDAEENYWGQGTTLSVSS VL: DIVLTQAAPSVPVTPGESVSISCRSSKSLLHSNGNTYLYWFLQRPGQSPQVLIYRMSNLASGVPVRFSGSGSGTAFTLRISRVEAEDVGVYYCMQHLEYPFTFGSGTKLEIK	–	513	0.55	3.3	124	14.3	67.4	189	4.73	93.9	–	–
